Assay results as given in EP4792830A2 (Pfizer Inc., dated 2026).
Like-named read-outs stand apart in the source and are kept apart here.

T1: rabTFPI K1K2 (rabbit, limits assumed)
T1 construct: also called Rabbit TFPI K1K2
T1 chain: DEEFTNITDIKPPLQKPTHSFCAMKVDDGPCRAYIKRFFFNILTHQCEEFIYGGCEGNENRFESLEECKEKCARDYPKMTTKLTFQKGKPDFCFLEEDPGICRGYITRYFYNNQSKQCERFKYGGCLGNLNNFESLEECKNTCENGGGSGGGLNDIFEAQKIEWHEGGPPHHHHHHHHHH

B1: mu-hu 4D8 chimera (antibody, human IgG1, kappa)
heavy: EVLLQQSGPELVKPGASVKIPCKASGYTFTDYNLDWVKQSHGKSLEWIGDINPINGATLYNQKFKGKATLTVDQSSSTAYMELRSLTSEDTAVYYCSIYYGDYDAMDYWGQGASVTVSSASTKGPSVFPLAPSSKSTSGGTAALGCLVKDYFPEPVTVSWNSGALTSGVHTFPAVLQSSGLYSLSSVVTVPSSSLGTQTYICNVNHKPSNTKVDKKVEPKSCDKTHTCPPCPAPEAAGAPSVFLFPPKPKDTLMISRTPEVTCVVVDVSHEDPEVKFNWYVDGVEVHNAKTKPREEQYNSTYRVVSVLTVLHQDWLNGKEYKCKVSNKALPAPIEKTISKAKGQPREPQVYTLPPSREEMTKNQVSLTCLVKGFYPSDIAVEWESNGQPENNYKTTPPVLDSDGSFFLYSKLTVDKSRWQQGNVFSCSVMHEALHNHYTQKSLSLSPG
light: DIVMTQSHKFMSTSVGDRVSITCKASQDVHTAVAWYQQKPGQSPRLLIYWASTRHTGVPDRFTGCGSGTDYTLTISSVQAEDLALYYCQQHYTTPYTFGGGTKLEMKRTVAAPSVFIFPPSDEQLKSGTASVVCLLNNFYPREAKVQWKVDNALQSGNSQESVTEQDSKDSTYSLSSTLTLSKADYEKHKVYACEVTHQGLSSPVTKSFNRGEC
notes: Mouse variable regions on human IgG1 3M and human kappa constant regions; also called hu-mu 4D8 chimera; mouse-human chimeric antibody 4D8
B2: 2A8 (antibody, human IgG1, lambda, V domains shown)
VH: QVQLVESGGGLVQPGGSLRLSCAASGFTFRSYGMSWVRQAPGKGLEWVSSIRGSSSSTYYADSVKGRFTISRDNSKNTLYLQMNSLRAEDTAVYYCARKYRYWFDYWGQGTLVTVSS
VL: DIELTQPPSVSVAPGQTARISCSGDNLRNYYAHWYQQKPGQAPVVVIYYDNNRPSGIPERFSGSNSGNTATLTISGTQAEDEADYYCQSWDDGVPVFGGGTKLTVLG

Tests used:
rabTFPI K1K2 [1] = molecular target: T1, rabTFPI K1K2; assay: SPR, antibody ligand, TFPI analyte
rabTFPI K1K2 [2] = molecular target: T1, rabTFPI K1K2; assay: ELISA, TFPI on streptavidin plate
rabTFPI K1K2 [3] = molecular target: T1, rabTFPI K1K2; assay: SPR, antibody ligand, TFPI analyte
cynTFPI K1K2 = molecular target: T2, cynTFPI K1K2 (cynomolgus monkey); assay: SPR, antibody ligand, TFPI analyte
T2 construct: also called Cynomolgus Monkey TFPI K1K2; cyno TFPI K1K2

Row | Binder | Kd (rabTFPI K1K2 [1]) | koff (rabTFPI K1K2 [1]) | kon (rabTFPI K1K2 [1]) | EC50 (rabTFPI K1K2 [2]) | Kd (rabTFPI K1K2 [3]) | koff (rabTFPI K1K2 [3]) | kon (rabTFPI K1K2 [3]) | koff (cynTFPI K1K2)
1 | B1 | 0.63 nM | 0.00126 s⁻¹ | 2.01e+06 M⁻¹ s⁻¹ | 0.068 nM |  |  |  | 
2 | B2 |  |  |  |  | 1.69 nM | 0.00123 s⁻¹ | 730000 M⁻¹ s⁻¹ | 0.0306 s⁻¹
